Experiments:
[1] = target: G protein of RSV A/Long (virus, ATCC Cat. No. VR-26) (Respiratory syncytial virus A/Long) (UniProt P20895); assay: cell-based or functional assay
[2] = target: T1, Sym-1789 (RSV-G type B central region peptide 145-184) (Respiratory syncytial virus type B); assay: ELISA, antibody titrated on biotinylated peptide on avidin plates (FIG. 3)
[3] = target: T2, Sym-1705 (RSV-G type A central region peptide 145-201) (Respiratory syncytial virus type A); assay: as above
[4] = target: T3, Sym-1706 (RSV G central conserved domain (CCD) peptide, type A 145-184) (Respiratory syncytial virus type A); assay: as above
[5] = target: T4, Sym-1788 (RSV-G type B central region peptide 145-201) (Respiratory syncytial virus type B); assay: as above
[6] = target: T1, Sym-1789 (RSV-G type B central region …); assay: BLI (Octet Red384), biotinylated peptide on streptavidin sensor tips
[7] = target: T2, Sym-1705 (RSV-G type A central region …); assay: as above
[8] = target: T3, Sym-1706 (RSV G central conserved …); assay: as above
[9] = target: T4, Sym-1788 (RSV-G type B central region …); assay: as above

Row | Binder | Neutralization IC50 (plaque reduction assay, Vero cells) [1] | IC50 [2] | IC50 [3] | IC50 [4] | IC50 [5] | binding response (Octet) [RU] [6] | binding response (Octet) [RU] [7] | binding response (Octet) [RU] [8] | binding response (Octet) [RU] [9]
1 | CR9505 (an antibody based on 131-2G, comprising the heavy and light chain variable region of 131-2G) (antibody, from another filing, V domains shown) VH: EVQLQQSGPELVKPGTSVKISCKASGYSFTGFTMNWVKQSHGKNLEWFGLINPFNGNTGYNQKFKGKATLTVDKSSSTAFMELLSLTSEDSAVYYCARSGKSYDYEAWFTYWGQGTLVTVSA VL: DIVMTQTTLSLPVSLGNQASISCRSSQTIVHTNGNTYLEWYLQKPGQSPKLLIYKVSNRFSGVPDRFSGSGSGTDFILNISRVEAEDLGVYYCFQGSHVPFTFGSGTKLEIKR | 0.018 µg/mL | – | – | – | – | – | – | – | –
2 | CB003.1 (antibody, V domains shown) VH: QVQLVQSGPELRKPGASVTVSCKASGYTFTTYYIHWVRQAPGGGLDWMGMINTGSGVTSYAQKFQGRVAMTRDTSTSTVFMELSSLRFEDTALYYCARMYSGSWYPFDYWGQGALVTVSS VL: EIVLTQSPGTLSLSPGERATLSCRASQNINGNYLAWYQQKPGLAPRLLIYEASSRATGIPDRFSGSGSGTDFTLTISSLEPEDFGVYYCQQYGTSPFFTFGPGTKVDIK | – | 0.02 µg/mL | 0.02 µg/mL | 0.02 µg/mL | 0.02 µg/mL | 3.2 RU | 3.48 RU | 3.36 RU | 3.28 RU
3 | CB010.7 (antibody, V domains shown) VH: QVQLVESGGGVVQPGRSLRLSCAASGFTFNTHGMHWVRQAPGKGLEWVAVMSYDGTKKYHADSVKGRFTISRDNSKNTLYLQMNSLRVEDTAIYYCAKVGELRSFDWLLADGTAYYYYGMDVWGQGTTVTVSS VL: not shown | – | 0.02 µg/mL | 0.02 µg/mL | 0.02 µg/mL | 0.02 µg/mL | 2.96 RU | 1.25 RU | 1.74 RU | 1.94 RU

— patent US20160145321A1
